This note sets out measurements from article PMC11389873 (Free radical biology & medicine, 2022).

Assay [1] has as its target Purified recombinant human apo-TDO (GST-TDO), Alexafluor 647-labelled (human, UniProt P48775 1-406, Alexafluor 647 on Cys groups). Nature of the assay: fluorescence polarisation. (In general: In fluorescence polarisation assays a small probe gives low polarisation when free and higher when bound to something large.)
Assay [2] has as its target Purified recombinant human apo-IDO1 (His6-IDO1), Alexafluor 647-labelled (human, UniProt P14902 1-403, Alexafluor 647 on Cys groups). Put plainly: fluorescence polarisation.

Chain of Purified recombinant human apo-IDO1 (His6-IDO1), Alexafluor 647-labelled (P14902 whole entry): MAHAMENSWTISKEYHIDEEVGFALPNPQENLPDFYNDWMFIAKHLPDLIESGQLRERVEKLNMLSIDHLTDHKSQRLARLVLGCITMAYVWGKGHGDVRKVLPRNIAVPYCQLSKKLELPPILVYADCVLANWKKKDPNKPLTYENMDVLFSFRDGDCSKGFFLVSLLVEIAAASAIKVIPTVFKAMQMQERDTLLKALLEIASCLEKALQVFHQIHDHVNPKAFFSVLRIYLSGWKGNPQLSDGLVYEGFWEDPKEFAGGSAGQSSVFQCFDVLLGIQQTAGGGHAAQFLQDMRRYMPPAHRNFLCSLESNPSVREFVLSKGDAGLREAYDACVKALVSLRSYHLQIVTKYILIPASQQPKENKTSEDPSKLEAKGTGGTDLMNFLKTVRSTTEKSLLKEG
Chain of Purified recombinant human apo-TDO (GST-TDO), Alexafluor 647-labelled (P48775 whole entry): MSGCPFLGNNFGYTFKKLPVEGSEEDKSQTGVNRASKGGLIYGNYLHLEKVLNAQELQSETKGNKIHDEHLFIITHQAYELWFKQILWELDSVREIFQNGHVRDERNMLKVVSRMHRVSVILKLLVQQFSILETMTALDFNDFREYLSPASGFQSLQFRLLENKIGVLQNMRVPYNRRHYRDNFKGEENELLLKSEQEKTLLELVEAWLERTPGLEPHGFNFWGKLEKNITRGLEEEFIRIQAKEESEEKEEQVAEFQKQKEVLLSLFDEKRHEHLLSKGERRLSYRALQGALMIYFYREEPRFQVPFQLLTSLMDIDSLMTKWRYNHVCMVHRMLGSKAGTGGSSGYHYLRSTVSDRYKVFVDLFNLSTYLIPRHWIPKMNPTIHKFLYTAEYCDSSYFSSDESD

B1: Purified GST-tagged human GAPDH (natural protein)
chain: not shown
On to B1, for which the dissociation constant Kd worked out at 1200 ± 400 nM in assay [1] and 1500 ± 1300 nM in assay [2].

One may read the Kd as the concentration at which binding is half-saturated.
